For 102 substances, amyloid nucleation score results are on record in the supplement of paper PMC12042874.

± gives the uncertainty stated by the source.

A short description of this data set: amyloid nucleation score (Sup35N fusion, yeast selection) (log enrichment); library NNK1; higher = more nucleation; inactive = no reads after selection. The method, boiled down: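 The nucleation score is the log enrichment of output over input reads, calculated with DiMSum and centred on the mode score of non-aggregating sequences. Sequences with under 100 input reads were excluded. Reads came from Illumina sequencing of plasmid inserts from psi-negative yeast expressing Sup35N fused to peptides of 20 random codons, induced 24 hours with 100 μM copper sulfate and grown 7 days at 30°C without adenine and uracil.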
Take RLMTASTALGPYTRDLGAYY: the amyloid nucleation score was -0.089 ± 1.2.
The value for HLWLFAGYMLLLKPKLKVCT was -0.625 ± 0.41; that for GLEDRNRWKVWFITLCRGIA was 0.71 ± 1.1; that for TAESQAKQLSSNRKVGLTPS was 0.549 ± 0.27.
CSLRYVLHYRYVGLETATNT displayed an amyloid nucleation score of 0.763 ± 0.5.
Substance VCIECTVAVKFHGYMRHSCC showed an amyloid nucleation score of 1.09 ± 0.54.
Then VVMYRALTNHN, with 0.949 ± 0.59; and AYCFNSTGLSRFCSKYLWSN, with -0.478 ± 0.45; and LMWVSRR, with 0.13 ± 0.38.
The value for VVTRWLASNNDGGIESLLIK was 0.132 ± 0.33; that for TNVVRVSLCFYMY was 8.776 ± 0.069.
For NFDSELFSPLMISDVREFTK, the amyloid nucleation score turned out to be 1.62 ± 0.47.
The value for GGDRGHMFGMKSATVRWLAY was 0.572 ± 0.45; that for TYARLLNCSAYSTTF was 0.048 ± 0.55.
The value for HSNCVLVVDMLAQWLMRAGD was 0.384 ± 0.79.
The value for YNSFKAVNPLKVGLVYMLKL was 0.021 ± 0.55; that for HGSIQSV was “inactive”.
GIWIRVSLAMRVTTSRRLGN came in with an amyloid nucleation score of 2.57 ± 0.17.
The value for EYVACVIEDFSVLNVVRQVD was -0.33 ± 0.21; that for VWFFQNNVNFSDKQ was 8.011 ± 0.045; that for GVMGYFVC was -0.405 ± 0.27.
Then FSVNILQQFIMGQSRICVGA, with -0.044 ± 0.38; and YLWILDMAREDELHATCSGE, with -0.558 ± 0.66; and YDHGRWDSTVSGLRDVMLDV, with “inactive”.
Then GVYSGVVSRSL, with -0.21 ± 0.34; and VFNHTVPQSIRFYTYNRSSR, with 3.87 ± 0.078.
As for CAAGARSSGEMAYIARMKAG, the amyloid nucleation score was determined as 0.482 ± 0.69.
On to GGQFHEEFSNEINEVQDCVL, for which the amyloid nucleation score is -0.15 ± 0.75.
Then PLVGGRNCGKDFPSLTDTPV, with -0.06 ± 0.27; and ATNSEAARYLS, with 0.996 ± 0.62; and VMFYSLHFCGVEDFFTGAER, with 0.834 ± 0.57.
Take QYRGDIYKISG: the amyloid nucleation score worked out at 1.29 ± 0.56.
In turn, LAWCNY came in with an amyloid nucleation score of 0.765 ± 0.57.
Then KCNVTQFVRSLYIRMSMLLH, with 0.534 ± 0.39; and REGWLITWRFNSW, with “inactive”.
Substance GVRMLGFVRV had an amyloid nucleation score of 0.261 ± 0.2.
Turning to DYFIKWFIYRPLTS, the amyloid nucleation score was -0.504 ± 0.6.
Consider DNRSFFWNL, for which the amyloid nucleation score came to 2.22 ± 0.13.
The value for TPTSSIPTPPRFPALTC was -0.72 ± 0.41; that for FLRALCSVGSRHTTPAFDYG was 0.351 ± 0.43.
Take MKVIDFVGFPFMGWRKWKTW: the amyloid nucleation score was -0.063 ± 0.35.
The value for DFVLIIFFCPCRYCSSTHTT was 3.32 ± 0.2.
In the case of MPTRKTMDGYASIEF, the amyloid nucleation score was -0.486 ± 0.41.
With CFSQPHGAVANHNAFSDNPW, the amyloid nucleation score was -0.289 ± 0.39.
Then IFSNQSATLGLSVSSWIYLE, with -0.983 ± 0.4.
The value for RKHIRYTLVREIPLKSFSQY was 0.043 ± 0.28.
Take IMYNCRYWSGVTLHYSVVQH: the amyloid nucleation score worked out at 1.89 ± 0.16.
Then ALRAHHSL, with 0.498 ± 0.56.
With VRSYDRMFYRDPQDLL, the amyloid nucleation score was -0.077 ± 0.22.
The value for SVKYMVIDFQLKRMEVVINK was 0.354 ± 0.36; that for LYGFANYFRFMRYWTRNVVP was 0.124 ± 1.2.
IFTFQLLFRNSQRSMYSSVL: the amyloid nucleation score is 0.651 ± 0.63.
For HQLAFYRFCIASSCSWAYLS, the amyloid nucleation score amounted to 0.825 ± 0.41.
The value for LACYDQPATSRSTAGSCPVP was 1.55 ± 0.7; that for HSLSWDNKLCLCSAN was 0.099 ± 0.3.
YQVCTFSNNGIWLWRLSIPH came in with an amyloid nucleation score of 1.81 ± 0.23.
The value for FAHHLYINRMSRFIDARVTI was 2.37 ± 0.13; that for CFRTFKFLI was 2.49 ± 0.27.
IHIWSSCLSNYKVILGAEVL came in with an amyloid nucleation score of 0.407 ± 0.28.
The value for WGDLHRMVMISREVEPVSNI was -0.361 ± 0.78.
Take DPYTHYVAMRINCYWEMCAL: the amyloid nucleation score is -1.06 ± 0.93.
The value for CLGAVIDSGNHSNSCYIRGD was 2.07 ± 0.67; that for CHLTMIMNLVIMMAWNPLHC was 0.765 ± 0.47.
Then TYTGFYCVRKLILVRRVSVW, with -0.897 ± 1.6; and RTIIDESVTAFLIWFCYVTV, with -0.21 ± 0.26; and LEGSNSFNLRNLQFALRGTL, with 0.069 ± 0.45.
The value for MWLKSNNWRNKADDLQGKVD was 0.523 ± 0.58; that for KVEVWRVLGNSVQRRFSKDQ was 0.353 ± 1.1.
Take YALRFFDDYESAAGSVR: the amyloid nucleation score was -0.454 ± 0.66.
Turning to GIRPPGKCMGWYLHMKFQSS, the amyloid nucleation score was -0.391 ± 0.59.
On to TLGPAWNVKFAWVFSFLVCI, for which the amyloid nucleation score stood at 0.933 ± 0.7.
Then NCLRNWHKFI, with -0.845 ± 0.7; and KFLRGYSCNVRSRPTRDRSV, with “inactive”; and TDAQWGIFYDENIYPLDVFC, with 0.075 ± 0.33.
Consider HQVVRSFGELHLLWCRLDEG, for which the amyloid nucleation score came to 0.204 ± 0.45.
In turn, SLFHLNFTIRWVDHAADSLV yielded an amyloid nucleation score of 1.98 ± 0.56.
In turn, STTLQERVYSAPATDLRDWA showed an amyloid nucleation score of 0.246 ± 0.37.
RSLKMINNYISKLHVLMGFH: the amyloid nucleation score was -0.281 ± 0.76.
The value for SWFIL was 0.428 ± 0.85.
For the substance RTMEYAPGCLVAFDYK, the amyloid nucleation score was 0.24 ± 0.44.
The substance TSHAVFNTVINLVVFVDQHC returned an amyloid nucleation score of 8.111 ± 0.055.
Consider FYCVDN, for which the amyloid nucleation score is 0.547 ± 0.65.
SLRCQFTSLLSMVCGCSLYG had an amyloid nucleation score of 0.807 ± 0.93.
SRVSFLNFWN showed an amyloid nucleation score of 4.27 ± 0.15.
The value for PKDLIVTTLHAWCDRHSYT was -0.49 ± 0.76; that for WITTMHNLHELNHRGPPPKL was -0.972 ± 1.8.
With CTGSVWYAPLWMWWEWLR, the amyloid nucleation score stood at 0.498 ± 0.69.
Then FTCLVNSNSPL, with 0.606 ± 0.71; and YFSFIWMYKMDIMTI, with -0.117 ± 0.35; and CQSVFRGTIHS, with -0.235 ± 0.55.
Then RVHQGLFDGNKAYQTGIHWN, with 0.041 ± 0.25.
The value for IFCGRIKQCSLASHCKLEWG was 0.69 ± 0.41.
For the substance ANTPRFMNTLV, the amyloid nucleation score was -0.824 ± 0.51.
The value for LSQMSRCNPACAVVPASEMA was 0.376 ± 1.1; that for LELSKTISMPVSMNRFWVIR was -1.39 ± 1.2; that for YAITRSAVICSNLALNMEC was 2.09 ± 0.23.
The value for RESGMTMHVVPQPLDTKTWC was 0.612 ± 0.72; that for TVTGIAKFHVVSQANY was -0.3 ± 0.98.
As to SIYIVNSLALVGMGLMSNYG, the amyloid nucleation score came to 2.81 ± 0.23.
In turn, IECLLDRILDTLYVRLNFIG showed an amyloid nucleation score of 0.616 ± 0.79.
With CVSFMVTFTIMRQLYNCKCR, the amyloid nucleation score was 3.91 ± 0.077.
On to WQFYTVL, for which the amyloid nucleation score was -0.246 ± 0.31.
